B1: IGFBP-2: Insulin-like growth factor binding protein-2, 36,000 dalton protein, purified from cellular conditioned medium (protein, UniProt P18065 36-325, looked up)
Insulin-like growth …: AEVLFRCPPCTPERLAACGPPPVAPPAAVAAVAGGARMPCAELVREPGCGCCSVCARLEGEACGVYTPRCGQGLRCYPHPGSELPLQALVMGEGTCEKRRDAEYGASPEQVADNGDDHSEGGLVENHVDSTMNMLGGGGSAGRKPLKSGMKELAVFREKVTEQHRQMGKGGKHHLGLEEPKKLRPPPARTPCQQELDQVLERISTMRLPDERGPLEHLYSLHIPNCDKHGLYNLKQCKMSLNGQRGECWCVNPNTGKLIQGAPTIRGDPECHLFYNEQQEARGVHTQRMQ

How the values were obtained:
[1] = test system: primary mouse preadipocytes; assay: Differentiation of primary mouse preadipocytes, oil red O staining; assay type: cell-based; details: peptide 2 ng to 2 ug/ml
Procedure: The maximum effect of the peptide was to inhibit differentiation to a level wherein <20% of the cells were positive. These findings were reconfirmed using primary mouse preadipocytes. 35-50 day old mice were killed and inguinal fat pads were removed aseptically. Fat tissue was washed and dissolved in Hanks basic salt solution containing 0.1% glucose and 2 mg/ml collagenase, (type 3 Worthington) and 4% BSA. Following 15 min digestion at 37°, the tissue was separated by dispersion and pipetting and then filtered through an 80 micron sterile nylon filter. The cells were then plated in DMEM F12 containing 10% fetal calf serum and then centrifuged at 700×g to separate the stromal vascular cells from the adipocytes, which float. The supernatant was discarded and the cell pellet which contained the stromal vascular cells was resuspended in DMEM F12 with 10% FCS and plated at a density of 15,000 cells/cm^2. The medium was aspirated 24 hr later and fresh medium was replaced every 3 days until the cells reached 80-90% confluence. Differentiation was induced by adding serum free medium containing 25 mM glucose, 10 ug/ml transferin, 10 nM T3, 10-7 dexamethasone, 5 ug/ml HDL and 16.7 nM insulin. This was added to cultures that were between […]. […] The IGFBP-2 had been purified from cellular conditioned medium and was determined to be homogenous by amino acid sequence analysis.

PTEN = assay: Western blot analysis of PTEN expression; assay type: cell-based, mouse; details: for PTEN concentrations: aortic smooth muscle and bone cells from IGFBP-2 gene deleted mice, exogenous addition
Procedure: FIG. 5. The heparin-binding domain of IGFBP2 suppresses PTEN expression. a and b, Igfbp2^−/− calvarial osteoblasts (COBs) were isolated, and treated with PBS, IGFBP-2 or pegylated heparin-binding domain peptide (PEG-HBD) in MEMα containing 0.1% BSA overnight. Whole cell lysate was collected and expression of PTEN and α-actin was analyzed by Western blot analysis. Expression levels of PTEN were quantified by normalizing to the expression levels of α-actin. c and d. COBs pre-incubated with PBS, IGFBP-2 or PEG-HBD overnight were treated with IGF-I (100 ng/ml) for 15 minutes. Whole cell lysate was collected and expression of pSer473-Akt and Akt was analyzed by Western blot analysis. Expression levels of pSer473-Akt were quantified by normalizing to the expression levels of Akt. Figures shown represent at least 3 independent experiments. Values are expressed as the mean±SEM (n=3-4). Statistical difference was analyzed by Student's t-test. *; <0.001, **; <0.01, ^†; <0.05.
FIG. 9. […] Igfbp2^+/+ calvarial osteoblasts were treated with PBS, control peptide, or heparin-binding domain peptide (HBD-peptide) overnight, and whole cell lysate was collected. PTEN expression was analyzed using western blot analysis (a), and quantitative analysis was performed (b). Values were expressed as the mean±SEM (n=3). Statistical significance was analyzed by ANOVA followed by Bonferroni post-hoc test. ^a; p<0.01 vs. PBS, ^b; p<0.01 vs. control peptide.
To prepare whole cell lysates, cells were solubilized in RIPA buffer^55. For cytosolic fraction, cells were solubilized with hypotonic buffer containing protease and phosphatase inhibitors (10 mM Tris, 0.2 mM MgCl2, pH 7.4) and kept on ice for 10 min. Cell lysates were mixed with sucrose buffer (final concentration; 25 mM Sucrose, 0.1 mM EDTA) and centrifuged at 20,000×g for 1 hour. Supernatant was used as cytosolic fraction. To prepare the membrane fraction, cells were solubilized with PBS containing protease and phosphatase inhibitors. The lysates were frozen at −80° C. for 1 h and thawed at room temperature. After three cycles, they were centrifuged at 13,000×g for 25 min. The pellet was suspended with membrane protein isolation buffer (20 mM Tris-HCl; 150 mM NaCl; 1 mM EDTA; 1 mM EGTA; and 1% Triton X-100, pH 7.5) containing protease and phosphatase inhibitors. Protein concentration was assessed by BCA protein assay kit (Thermo Scientific) and equal amounts of sample were separated by SDS-PAGE and transferred electrophoretically to nitrocellulose membranes. Membranes were blocked in 5% BSA in Tris-buffered saline. […]

metacarpals = assay: Metacarpal culture ex vivo (calcein incorporated area, length, width); assay type: cell-based, mouse; details: 10 days, IGFBP2 200 ng/ml, peptides 2 μg/ml, vs PBS
Procedure: FIG. 2. The heparin binding domain of IGFBP2 enhances periosteal expansion of metacarpals ex vivo. Metacarpals were collected from day 1 male mouse, and treated with osteogenic media with IGFBP2 (200 ng/ml) or the heparin-binding domain peptide (HBD-peptide) (2 μg/ml) in the presence or absence of IGF-1 (20 ng/ml) for 10 days. Bones were labeled with calcein (500 ng/ml) and calcein incorporated area was visualized (a) and longitudinal length of calcein incorporated area was quantified (b). Alcian blue and Von Kossa double staining was performed (c) and length and width of metacarpals were quantified (d). Statistical difference was analyzed by ANOVA followed by Bonferroni post-hoc test. Figures shown represent at least 3 independent experiments. Values are expressed as the mean±SEM (n=3-4). ^a; <0.05 vs PBS, ^b; <0.01 vs PBS, ^c; <0.001 vs PBS, ^d; <0.01 vs HBD, ^e; <0.05 vs IGF-I, ^f; <0.05 vs HBD.
Metacarpals were isolated from Igfbp2^−/− mice at 1-day old and incubated in DMEM containing 0.5% BSA, 50 μg/ml ascorbic acid and 1 mM β-glycerol phosphate for 10 days^54. Stimulants were added to culture media from day 1. At day 10, metacarpals were incubated in media containing calcein (500 ng/ml) for 2 hours for staining of calcium deposition, and images were obtained. Then, bones were fixed with 4% PFA, embedded in paraffin, and processed for Alcian blue and von Kossa double staining.

Row | Molecule | inhibition of adipocyte differentiation [1] | PTEN concentrations (PTEN) | calcein incorporated area of metacarpals (metacarpals; IGF-1 20 ng/ml) | width (and length) of metacarpals (metacarpals) | PTEN expression (PTEN; primary calvarial osteoblasts, overnight treatment)
1 | KHHLGLEEPKKLR (IGFBP-2 heparin binding domain-containing peptide sequence) [peptide of SEQ ID NO:1] | reconfirmed | could suppress PTEN concentrations |  |  | 
2 | B1 |  | could suppress PTEN concentrations | significantly enhanced | increased the width of metacarpals | markedly suppressed PTEN expression
